Measurements: patent publication US6479459 (IMMUNEX, dated 2002)

Molecular target: T1, soluble elk/Fc fusion protein (rat elk extracellular domain fused to human IgG1 Fc) (rat; human, UniProt P09759 18-540; P01857 99-330 = IgG part, limits assumed)
T1 construct: extracellular domain;domain: Fc region; Expressed transiently in mammalian host cells and purified on protein A sepharose
Assay: Scatchard analysis; elk/Fc at various concentrations on CV1-EBNA-1 cells expressing LERK-5, detected with 125I-mouse anti-human IgG
Procedure: CV1-EBNA-1 cells in 10 cm² dishes were transfected with the recombinant expression vector containing LERK-5 DNA. The CV-1/EBNA-1 cell line (ATCC CRL 10478) constitutively expresses EBV nuclear antigen-1 driven from the CMV immediate-early enhancer/promoter. CV1-EBNA-1 was derived from the African Green Monkey kidney cell line CV-1 (ATCC CCL 70), as described by McMahan et al. (*EMBO J*. 10:2821, 1991).
The transfected cells were cultured for 24 hours, and the cells in each dish then were split into a 24-well plate. After culturing an additional 48 hours, a binding assay was conducted by the following procedure. The transfected cells (about 4×10^4 cells/well) were washed with BM-NFDM, which is binding medium (RPMI 1640 containing 25 mg/ml bovine serum albumin, 2 mg/ml sodium azide, 20 mM Hepes pH 7.2) to which 50 mg/ml nonfat dry milk has been added. The cells then were incubated for 1 hour at 37° C. with various concentrations of the elk/Fc fusion protein prepared in Example 2 or the hek/Fc fusion protein prepared in Example 3. Cells then were washed and incubated with a constant saturating concentration of a ^125I-mouse anti-human IgG in binding medium, with gentle agitation for 1 hour at 37° C. After extensive washing, cells were released via trypsinization. […]

T1 sequence (P09759 other isoform, or with tags, fused parts or gaps limits assumed): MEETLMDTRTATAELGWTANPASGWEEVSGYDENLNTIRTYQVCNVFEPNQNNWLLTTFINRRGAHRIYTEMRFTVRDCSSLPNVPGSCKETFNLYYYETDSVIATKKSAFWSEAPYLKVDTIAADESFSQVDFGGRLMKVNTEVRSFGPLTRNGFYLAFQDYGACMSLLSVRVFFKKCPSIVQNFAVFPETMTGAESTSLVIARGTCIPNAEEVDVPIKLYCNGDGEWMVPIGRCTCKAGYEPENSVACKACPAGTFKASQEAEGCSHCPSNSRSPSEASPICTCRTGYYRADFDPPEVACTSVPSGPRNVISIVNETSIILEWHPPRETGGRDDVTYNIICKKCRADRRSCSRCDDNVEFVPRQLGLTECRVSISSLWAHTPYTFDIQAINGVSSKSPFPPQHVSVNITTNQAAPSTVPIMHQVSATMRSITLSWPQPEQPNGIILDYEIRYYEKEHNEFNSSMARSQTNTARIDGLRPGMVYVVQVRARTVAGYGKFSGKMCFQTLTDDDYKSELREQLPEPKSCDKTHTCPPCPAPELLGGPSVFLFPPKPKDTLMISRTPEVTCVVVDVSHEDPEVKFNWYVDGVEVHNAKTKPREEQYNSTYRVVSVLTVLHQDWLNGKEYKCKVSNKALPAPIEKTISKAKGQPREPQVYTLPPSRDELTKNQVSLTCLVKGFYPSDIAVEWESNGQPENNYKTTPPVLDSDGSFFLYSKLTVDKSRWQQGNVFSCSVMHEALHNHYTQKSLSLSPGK

- Ka: 1.05e+09 M⁻¹
B1: human LERK-5 (recombinant, full length, expressed on the surface of transfected CV1-EBNA-1 cells) (ligand)
chain: KSIVLEPIYWNSSNSKFLPGQGLVLYPQIGDKLDIICPKVDSKTVGQYEYYKVYMVDKDQADRCTIKKENTPLLNCAKPDQDIKFTIKFQEFSPNLWGLEFQKNKDYYIISTSNGSLEGLDNQEGGVCQTRAMKILMKVGQDASSAGSTRNKDPTRRPELEAGTNGRSSTTSPFVKPNPGSSTDGNSAGHSGNNILGSEVALFAGIASGCIIFIVIIITLVVLLLKYRRRHRKHSPQHTTTLSLSTLATPKRSGNNNGSEPSDIIIPLRTADSVFCPHYEKVSGDYGHPVYIVQEMPPQSPANIYYKV
notes: The whole coding region of clone λ6 was expressed from pDC410 in CV1-EBNA-1 cells; also called clone λ6 protein
